From patent publication US20240400616A1 (Bicycle, published 2024) come the findings set out here.

*1 amine or outer side, *2 acyl side, *3 side chain or, on linkers, in order; H or OH if unused. Bridges are numbered along the chain shown (N, C = ends). Where no end group is shown, it is not given here. [ ]: non-standard residue; d: D form. TATA = O=C(CC[*:1])N1CN(C(=O)CC[*:2])CN(C(=O)CC[*:3])C1; fluorescein = fluorescein (Fl) label on lysine; 1Nal = N[C@@H](Cc1cccc2ccccc12)C(=O)O; PABC = O=C(OCc1ccc(N[*:1])cc1)[*:2]; Glutaryl = O=C(CCCC(=O)[*:2])[*:1]; Hyp = O=C(O)[C@@H]1C[C@@H](O)CN1; hArg = N=C(N)NCCCC[C@H](N)C(=O)O; Cit = NC(=O)NCCC[C@H](N)C(=O)O; βAla = NCCC(=O)O; Sar = CNCC(=O)O

Experiment [1] deals with T1, Nectin-4 on MDA-MB-468 cells (UniProt Q96NY8 32-510, limits assumed).
T1 construct: whole, on cells; the cell line is a human breast cancer line; also called PVRL-4
T1 sequence (looked up): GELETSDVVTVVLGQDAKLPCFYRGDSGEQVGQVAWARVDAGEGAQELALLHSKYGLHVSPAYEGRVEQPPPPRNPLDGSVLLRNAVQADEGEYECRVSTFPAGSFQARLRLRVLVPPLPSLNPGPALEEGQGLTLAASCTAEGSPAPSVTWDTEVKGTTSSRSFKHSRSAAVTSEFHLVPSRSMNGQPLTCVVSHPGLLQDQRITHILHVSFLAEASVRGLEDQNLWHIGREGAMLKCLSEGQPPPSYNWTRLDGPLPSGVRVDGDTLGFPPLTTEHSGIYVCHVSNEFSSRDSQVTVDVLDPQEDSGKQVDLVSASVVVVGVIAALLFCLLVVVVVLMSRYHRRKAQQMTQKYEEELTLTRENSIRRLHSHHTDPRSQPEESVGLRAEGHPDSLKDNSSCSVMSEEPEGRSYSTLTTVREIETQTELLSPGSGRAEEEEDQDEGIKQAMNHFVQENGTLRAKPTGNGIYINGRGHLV
Kind of experiment: HCS cell-binding assay on MDA-MB-468 cells at 4°C: cells incubated with the test agent, washed, detected with a fluorescent antibody to MMAE; readout membrane mean intensity CH2 (RFU) [A]. As for the experimental part: (§1) HCS assay was used in Nectin-4 BDC binding study. Cells were incubated with test agent and then washed. Detection was by a fluorescent antibody to MMAE.

Experiment [2] deals with T2, Human Nectin-4 (residues Gly32-Ser349; NCBI RefSeq: NP_112178.2) with C-terminal FLAG tag, biotinylated (human, UniProt Q96NY8 32-349, randomly biotinylated with EZ-Link Sulfo-NHS-LC-LC-Biotin).
T2 construct: range 32-349; also called human Necin-4 protein; biotinylated Nectin-4; not shown: C-terminal FLAG tag
T2 sequence (looked up): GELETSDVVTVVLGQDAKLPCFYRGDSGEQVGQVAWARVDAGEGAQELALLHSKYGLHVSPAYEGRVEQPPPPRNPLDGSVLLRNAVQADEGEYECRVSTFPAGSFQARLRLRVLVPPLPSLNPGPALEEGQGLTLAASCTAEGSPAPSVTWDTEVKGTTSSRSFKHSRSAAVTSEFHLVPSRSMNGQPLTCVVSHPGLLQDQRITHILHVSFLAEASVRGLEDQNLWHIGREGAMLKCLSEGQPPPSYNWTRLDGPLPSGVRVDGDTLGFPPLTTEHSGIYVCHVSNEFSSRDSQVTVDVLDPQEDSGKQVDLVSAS
Kind of experiment: Biacore SPR, biotinylated Nectin-4 captured on streptavidin chip, conjugate as analyte.

Experiment [3] concerns the target T1, Nectin-4 on MDA-MB-468 cells. Kind of experiment: HCS cell binding assay on MDA-MB-468 cells, detection with fluorescent anti-MMAE antibody. As for the experimental part:
as §1

Experiment [4] shares this target. Kind of experiment: historical Kd as printed in Table 44; assay not described.
The target in experiment [5] is T3, human Nectin-4 (protein used in the fluorescence polarisation direct and competition binding assays) (human, UniProt Q96NY8 32-349).
T3 construct: It may be the Gly32-Ser349 FLAG construct described for SPR
T3 sequence (looked up): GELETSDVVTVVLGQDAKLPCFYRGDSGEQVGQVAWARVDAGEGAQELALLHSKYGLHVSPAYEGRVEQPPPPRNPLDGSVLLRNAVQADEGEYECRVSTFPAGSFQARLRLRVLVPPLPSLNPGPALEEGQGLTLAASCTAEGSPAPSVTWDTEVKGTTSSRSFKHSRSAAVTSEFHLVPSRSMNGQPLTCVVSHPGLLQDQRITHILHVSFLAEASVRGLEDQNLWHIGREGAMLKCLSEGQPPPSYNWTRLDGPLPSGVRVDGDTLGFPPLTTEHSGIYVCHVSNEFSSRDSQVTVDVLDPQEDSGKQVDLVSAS
Briefly: fluorescence polarisation competition; competitor: fluorescent tracer SEQ ID NO: 2; 2 experiments. The protocol: (§2) Affinity of the peptides of the invention for human Nectin-4 (Ki) was determined using a fluorescence polarisation assay, in accordance with the methods disclosed in WO 2016/067035. Peptides of the invention with a fluorescent tag (either fluorescein, SIGMA or Alexa Fluor488™, Fisher Scientific) were diluted to 2.5 nM in PBS with 0.01% tween 20 or 50 mM HEPES with 100 mM NaCl and 0.01% tween pH 7.4 (both referred to as assay buffer). […] Measurements were conducted on a BMG PHERAstar FS equipped with an “FP 485 520 520” optic module which excites at 485 nm and detects parallel and perpendicular emission at 520 nm. The PHERAstar FS was set at 25° C. with 200 flashes per well and a positioning delay of 0.1 second, with each well measured at 5 to 10 minute intervals for 60 minutes. […] Data was analysed using Systat Sigmaplot version 12.0. mP values were fit to a user defined quadratic equation to generate a Kd value: f=ymin+ (ymax−ymin)/Lig*((x+Lig+Kd)/2-sqrt((((x+Lig+Kd)/2)\hat{ }2)−(Lig*x))).
(§3) Peptides were diluted to an appropriate concentration in assay buffer as described in the direct binding assay with a maximum of 5% DMSO, then serially diluted 1 in 2. […] Measurements were conducted as for the direct binding assay, however the gain was determined prior to the first measurement. […]
(In general: Fluorescence polarisation rises when a labelled molecule tumbles more slowly, as on binding a larger partner.)

Experiment [6] has as its target T2, Human Nectin-4 (residues Gly32-Ser349; …). Kind of experiment: Biacore SPR, biotinylated Nectin-4 captured on streptavidin chip, peptide as analyte; n = 1. (Surface plasmon resonance follows binding to a sensor surface in real time, without labels.)
The target in experiment [7] is T3, human Nectin-4 (protein used in the …). Kind of experiment: fluorescence polarisation direct binding assay. As for the experimental part:
as §2

Experiment [8] shares this target. Briefly: fluorescence polarisation competition; competitor: fluorescent tracer SEQ ID NO: 2; 6 experiments. The protocol:
as §2, §3

Experiment [9] deals with T2, Human Nectin-4 (residues Gly32-Ser349; …). Briefly: Biacore SPR, biotinylated Nectin-4 captured on streptavidin chip, peptide as analyte; n = 4.

B1: BCY8245: MMAE-PABC-Cit-Val-Glutaryl-BCY8234 (BCY8234 = [B-Ala][Sar10]-(SEQ ID NO: 1), cyclised with TATA) (peptide)
peptide: {MMAE-PABC-Cit-Val-Glutaryl}-[βAla][Sar][Sar][Sar][Sar][Sar][Sar][Sar][Sar][Sar][Sar]CP[1Nal][dD]CM[hArg]DWSTP[Hyp]WC
modifications: linker 12-16-26 via TATA
notes: Bicyclic peptide drug conjugate (BDC) with an MMAE to drug ratio of 1; also called BT8009
As to B1, the “EC50 (read off the curve)” value in experiment [1] is ~3 nM. Moreover, the Kd in [2] came to 5.12 nM; in experiment [3], 3.52 nM; in experiment [4], 5.18 nM.

In turn, Ac-[βAla][Sar][Sar][Sar][Sar][Sar]CP[1Nal][dD]CM[hArg]DWSTP[Hyp]WC (linker 7-11-21 via TATA, Bicyclic peptide) [BCY8122: Ac-[B-Ala][Sar5]-(SEQ ID NO: 1), cyclised with TATA] gave a Ki in experiment [5] of 3 nM. This molecule also yielded a Kd in experiment [6] of 0.89 nM.

ACPFGCHTDWSWPIWCA[Sar][Sar][Sar][Sar][Sar][Sar]K(fluorescein) (linker 2-6-16 via TATA, also called fluorescent peptide; tracer) [ACPFGCHTDWSWPIWCA-Sar6-K(FI) (SEQ ID NO: 2)] showed a Kd in experiment [7] of 5 nM.

B2: BCY8126: Ac-(SEQ ID NO: 1), cyclised with TATA (peptide)
peptide: CPADCMRDWSTPPWC
modifications: N-terminal acetyl; core as printed Ci-P1-[1Nal]2-[dD]3-Cii-M4-[HArg]5-D6-W7-S8-T9-P10-[HyP]11-W12-Ciii (1Nal = 1-naphthylalanine, dD = D-Asp, HArg = homoarginine, HyP = hydroxyproline); Ci, Cii and Ciii covalently bound to the TATA scaffold
notes: Bicyclic peptide
As for B2, the affinity in [8], expressed as Ki, was 2.7 nM. This molecule also came in with a Kd in [9] of 1.07 nM.

B3: BCY8116: (SEQ ID NO: 1), cyclised with TATA (peptide)
peptide: CPADCMRDWSTPPWC
modifications: core as printed Ci-P1-[1Nal]2-[dD]3-Cii-M4-[HArg]5-D6-W7-S8-T9-P10-[HyP]11-W12-Ciii (1Nal = 1-naphthylalanine, dD = D-Asp, HArg = homoarginine, HyP = hydroxyproline); Ci, Cii and Ciii covalently bound to the TATA scaffold
notes: Bicyclic peptide
B3 gave a Kd in experiment [6] of 0.372 nM.

What is called EC50 (read off the curve) is the midpoint of the concentration-response curve. Low readings indicate an effect from little substance, high ones a need for much substance. One may read the Kd as the constant that tells how readily two partners part at equilibrium. Higher therefore signals lower affinity. A word on the Ki: it is the equilibrium dissociation constant of an inhibitor or competing ligand from its target. Read a low Ki as higher affinity.
